Test results as given in patent US20170305985A1 (Stanford University, published 2017).

Biological target: Met receptor on Madine-Darby canine kidney (MDCK) cells (canine (MDCK cells), UniProt Q75ZY9 25-1382)
Experiment: cell-based or functional assay

B1: recombinant soluble Aras-4 (ligand)
chain: YAEGQGKRRNTIHEFKKSAKTTLIKIDPALRIKTEKANTADQCANRCTRSKGLPFTCKAFVFDKARKRCLWFPFNSMSSGVKKEFGHEFDLYENKAYIRDCIIGRGRNYRGTVSITKSGIKCQPWSAMIPHEHSFLPSSYRGEDLRENYCRNPRGEEGGPWCYTSDPEVRYEVCDIPQCSEVE
inhibition of HGF-induced activation of Met, MDCK cells: ~5 fold lower concentration
